From the RNAGym collection of RNA variant scans (doi:10.7554/elife.80360)

B1: CPEB3 Ribozyme (parent)
chain: GGGGGCCACAGCAGAAGCGUUCACGUCGCGGCCCCUGUCAGAUUCUGGUGAAUCUGCGAAUUCUGCUGU

Variants of: B1
Experiment: self-cleavage, relative activity (ratio to wild type); higher = more cleavage; co-transcriptional

Variant | self-cleavage
GGGGGCCACAGCAGAAGCGUUCACGUCGCGACCCCUGUCUGAUUCUGGUGAAUCUGCGAAUUCUGCUGU [G31A A40U] | 0.533
GGGGGCCACAGCAGAAGCGUUCACGUCGCGACCCCUGUCCGAUUCUGGUGAAUCUGCGAAUUCUGCUGU [G31A A40C] | 0.218
GGGGGCCACAGCAGAAGCGUUCACGUCGCGACCCCUGUCGGAUUCUGGUGAAUCUGCGAAUUCUGCUGU [G31A A40G] | 0.771
GGGGGCCACAGCAGAAGCGUUCACGUCGCGACCCCUGUCAGAUUCUGGUGAAUCUGCGAAUUCUGCUGU [G31A] | 0.931
GGGGGCCACAGCAGAAGCGUUCACGUCGCUGCCCCUGUCAGAUUCUGGUGAAUCUGCGAACUCUGCUGU [G30U U61C] | 0.243
GGGGGCCACAGCAGAAGCGUUCACGUCGCUGCCCCUGUCAGAUUCUGGGGAAUCUGCGAAUUCUGCUGU [G30U U49G] | 0.352
GGGGGCCACAGCAGAAGCGUUCACGUCGCUGCCCCUGUCAGAUUCUGGAGAAUCUGCGAAUUCUGCUGU [G30U U49A] | 0.365
GGGGGCCACAGCAGAAGCGUUCACGUCGCUGCCCCUGUCAGAUUCUGGCGAAUCUGCGAAUUCUGCUGU [G30U U49C] | 0.456
GGGGGCCACAGCAGAAGCGUUCACGUCGCUGCCCCGGUCAGAUUCUGGUGAAUCUGCGAAUUCUGCUGU [G30U U36G] | 0.175
GGGGGCCACAGCAGAAGCGUUCACGUCGCGACCCCUGUCAGAUUCUGGUGUAUCUGCGAAUUCUGCUGU [G31A A51U] | 0.879
GGGGGCCACAGCAGAAGCGUUCACGUCGCGACCCCUGUCAGAUUCUGGUGCAUCUGCGAAUUCUGCUGU [G31A A51C] | 0.897
GGGGGCCACAGCAGAAGCGUUCACGUCGCGACCCCUGUCAGAUUCUGGUGGAUCUGCGAAUUCUGCUGU [G31A A51G] | 0.928
GGGGGCCACAGCAGAAGCGUUCACGUCGCUGCCCCUGUCAGAUUCUGGUGAAUCUGCGAAUUCAGCUGU [G30U U64A] | 0.288
GGGGGCCACAGCAGAAGCGUUCACGUCGCUGCCCCUGUCAGAUUCUGGUGAAUCUGCGAAUUCGGCUGU [G30U U64G] | 0.219
GGGGGCCACAGCAGAAGCGUUCACGUCGCUGCCCCUGUCAGAUUCCGGUGAAUCUGCGAAUUCUGCUGU [G30U U46C] | 0.39
GGGGGCCACAGCAGAAGCGUUCACGUCGCUGCCCCUGUCAGAUUCAGGUGAAUCUGCGAAUUCUGCUGU [G30U U46A] | 0.44
GGGGGCCACAGCAGAAGCGUUCACGUCGCGACCCCUGUCAGAUUCUGGUGACUCUGCGAAUUCUGCUGU [G31A A52C] | 0.82
GGGGGCCACAGCAGAAGCGUUCACGUCGCUGCCCCUGUCAGAAUCUGGUGAAUCUGCGAAUUCUGCUGU [G30U U43A] | 0.311
GGGGGCCACAGCAGAAGCGUUCACGUCGCUGCCCCUGUCAGAGUCUGGUGAAUCUGCGAAUUCUGCUGU [G30U U43G] | 0.281
GGGGGCCACAGCAGAAGCGUUCACGUCGCUGCCCCUGUCAGACUCUGGUGAAUCUGCGAAUUCUGCUGU [G30U U43C] | 0.38

Variant | self-cleavage
GGGGGCCACAGCAGAAGCGUUCACGUCGCUGCCCCUGUCAGAUGCUGGUGAAUCUGCGAAUUCUGCUGU [G30U U44G] | 0.308
GGGGGCCACAGCAGAAGCGUUCACGUCGCUGCCCCUGUCAGAUACUGGUGAAUCUGCGAAUUCUGCUGU [G30U U44A] | 0.248
GGGGGCCACAGCAGAAGCGUUCACGUCGCUGCCCCUGUCAGAUCCUGGUGAAUCUGCGAAUUCUGCUGU [G30U U44C] | 0.364
GGGGGCCACAGCAGAAGCGUUCACGUCGCUGCCCCUGUCAGAUUCUGGUGAAUCAGCGAAUUCUGCUGU [G30U U55A] | 0.304
GGGGGCCACAGCAGAAGCGUUCACGUCGCUGCCCCUGUCAGAUUCUGGUGAAUCGGCGAAUUCUGCUGU [G30U U55G] | 0.232
GGGGGCCACAGCAGAAGCGUUCACGUCGCUGCCCCUGUCAGAUUCUGGUGAAUCCGCGAAUUCUGCUGU [G30U U55C] | 0.287
GGGGGCCACAGCAGAAGCGUUCACGUCGCGACCCCUGUCAGGUUCUGGUGAAUCUGCGAAUUCUGCUGU [G31A A42G] | 0.794
GGGGGCCACAGCAGAAGCGUUCACGUCGCGACCCCUGUCAGUUUCUGGUGAAUCUGCGAAUUCUGCUGU [G31A A42U] | 0.638
GGGGGCCACAGCAGAAGCGUUCACGUCGCGACCCCUGUCAGAUUCUGGUGAAUCUGCGCAUUCUGCUGU [G31A A59C] | 0.394
GGGGGCCACAGCAGAAGCGUUCACGUCGCUGCCCCUGUCAGAUUCUGGUGAAUCUGCGAAUUCUGCAGU [G30U U67A] | 0.735
GGGGGCCACAGCAGAAGCGUUCACGUCGCUGCCCCUGCCAGAUUCUGGUGAAUCUGCGAAUUCUGCUGU [G30U U38C] | 0.253
GGGGGCCACAGCAGAAGCGUUCACGUCGCUGCCCCUGACAGAUUCUGGUGAAUCUGCGAAUUCUGCUGU [G30U U38A] | 0.201
GGGGGCCACAGCAGAAGCGUUCACGUCGCUGCCCCUGGCAGAUUCUGGUGAAUCUGCGAAUUCUGCUGU [G30U U38G] | 0.153
GGGGGCCACAGCAGAAGCGUUCACGUCGCUGCCCCUGUCAGAUUCUGGUGAAUCUGCGAAUUCUGCUGA [G30U U69A] | 0.666
GGGGGCCACAGCAGAAGCGUUCACGUCGCUGCCCCUGUCAGAUUCUGGUGAAGCUGCGAAUUCUGCUGU [G30U U53G] | 0.241
GGGGGCCACAGCAGAAGCGUUCACGUCGCUGCCCCUGUCAGAUUCUGGUGAACCUGCGAAUUCUGCUGU [G30U U53C] | 0.276
GGGGGCCACAGCAGAAGCGUUCACGUCGCUGCCCCUGUCAGAUUCUGGUGAAACUGCGAAUUCUGCUGU [G30U U53A] | 0.297
GGGGGCCACAGCAGAAGCGUUCACGUCGCUGCCCCUGUCAGAUUCUGGUGAAUCUGCGAAUGCUGCUGU [G30U U62G] | 0.19
GGGGGCCACAGCAGAAGCGUUCACGUCGCUGCCCCUGUCAGAUUCUGGUGAAUCUGCGAAUCCUGCUGU [G30U U62C] | 0.211
